Data on one molecule can be found in US20260265370A1 (SUZHOU TRANSCENTA THERAPEUTICS, published 2026).

This experiment deals with T1, human PD-L1 (human, UniProt Q9NZQ7 19-290).
T1 construct: whole, on cells; Endogenous protein in FFPE tumour sections; also called PD-ligand 1
Kind of experiment: IHC on FFPE GC-02-0007 PDX tumour sections, Leica BOND III, membrane staining. On the procedure: PD-L1 expression status was also assessed to better understand the immune modulation pre- and post Hu18B10-HaLa treatment in GC-02-0007 PDX tumor samples. Immunohistochemistry (IHC) was performed on these 4% neutral buffered formalin fixed paraffin-embedded (FFPE) tumor sections using commercially available Rabbit anti-human PD-L1 monoclonal antibodies (SP263). After deparaffinization and rehydration, all slides were proceeded to antigen retrieval in BOND Epitope Retrieval Solution 2 (Leica, AR9640) for 30 minutes at 97-99° C. Subsequently quenched, blocked with peroxidase inhibitor and incubated with appropriately diluted SP263 (0.2 ug/mL) antibodies for 30 minutes at room temperature (RT). Antibody binding was visualized with BOND Polymer Detection (Leica, DS9800) for 8 minutes on auto-staining Leica BOND III. Sections were finally counterstained with Hematoxylin and mounted with permanent mounting medium.

T1 sequence (Q9NZQ7 19-290): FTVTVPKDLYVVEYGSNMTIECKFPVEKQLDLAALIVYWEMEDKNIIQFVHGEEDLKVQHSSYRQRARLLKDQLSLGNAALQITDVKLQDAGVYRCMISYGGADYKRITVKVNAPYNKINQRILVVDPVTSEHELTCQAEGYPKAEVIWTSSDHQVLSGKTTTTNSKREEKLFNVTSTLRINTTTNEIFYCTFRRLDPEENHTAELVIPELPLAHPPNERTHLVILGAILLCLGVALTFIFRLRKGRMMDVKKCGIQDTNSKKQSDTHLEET

B1: Rabbit anti-human PD-L1 monoclonal antibody SP263 (antibody, V domains shown)
VH: QSLEESGGRLVTPGTPLTLTCTASGFSLSNHAISWVRQAPGKGLEWIGTINSDTHTYYATWPKGRFTISKTSSTTVDLKMTSPTTEDTATYFCARRIFSSSNIWGPGTLVTVSS
VL: AIVMTQTSSPVSAVVGGTVAINCQASQSIYNNNWLSWFQQKPGQPPKLLIYLASTLASGVPSRFKGSGSGTQFTLTISDVVCDDAATYYCIGGESSNNDGIAFGGGTEVVVK
notes: Commercially available rabbit monoclonal antibody; also called anti-PD-L1 diagnostic antibody SP263
As to B1, the binding result is “binds”.
